Reference: patent US8620595B2, “Methods for determining the retention of peptides in reverse phase chromatography using linear solvent strength theory” (University of Manitoba, priority 2010, dated 2013)

Assay: Isocratic elution measurement of slope S (log k vs. φ plots), RP-HPLC with UV detection
Assay type: physicochemical
Conditions: Luna C18(2) column, water/acetonitrile with 0.1% formic acid, 22-23° C.
Procedure: (§1) Chromatography. All chromatographic experiments were conducted at a controlled temperature of 22-23° C. For isocratic measurement of the slope values, a micro-Agilent 1100 Series system (Agilent Technologies, Wilmington, Del.), was used with a 1 mm×100 mm 5 μm Luna C18(2) (Phenomenex, Torrance, Calif.) column and a UV detector operated at 214 nm. Both eluents A (water) and B (acetonitrile) contained 0.1% formic acid as ion-pairing modifier. Stock solutions of the 11 standard peptides (˜1 mg/ml) were prepared by dissolving each peptide in 1 ml of 0.1% FA in water or a 20% acetonitrile solution. Ten microliters of sample was injected. Individual peptides were diluted to provide ˜0.5-1 μg injection of each component using a 10 μl loop. The dead volume of the column and connecting tubings was determined by injecting a non-retained compound (water) and measuring the elution time of the negative peak at a 150 μL/min flow rate. Retention factors for isocratic elution were calculated using the formula: k=(tR−t0)/t0c; where tR is the retention time, t0 is the system (column and tubings) dead time, and t0c is the column dead time. Additional details of measuring S-values via constructing log k vs. φ plots are provided elsewhere.^24 The nano-LC MS/MS experiments were conducted using splitless Tempo LC system (Eksigent, Dublin, Calif.) with 20 μL sample injection via a 300 μm×5 mm PepMap100 (Dionex, Sunnyvale, Calif.) trap-column and a 100 μm×200 mm analytical column packed with 5 μm Luna C18(2) (Phenomenex, Torrance, Calif.). Tryptic digests of the mixtures were spiked with calibrating peptides (see Table 1) as described above, injected on the trap-column using buffer A as a carrier and separated using 0.1875, 0.375 and 0.75 percent acetonitrile per minute linear gradients starting from 0.5% acetonitrile at 500 nL/min flow rate. The composition of both eluents A and B was identical to one described above for normal-flow system. Gradient programs consisted of a 0.5-40% linear increase of buffer B in 213.2, 106.6 and 53.3 minutes, respectively. After each run the gradient columns were washed with 80% B for 3 minutes and equilibrated with the starting A:B ratio for 18 minutes.
Accordingly, for the determination of S-values of the set of synthetic peptides we used an isocratic elution procedure, despite it being extremely labor intense.^23 Isocratic measurements consist of determining retention times of peptides at several constant acetonitrile concentrations and plotting experimental Eqn. 1 for each peptide.
These two ways of measurement have been combined to provide a highly accurate and fast way of determining S for an extensive sets of peptides (see FIG. 3). First, precise isocratic measurement of S is performed in normal flow conditions with UV detection for a set of synthetic “S-calibrating” peptides. Similar to the previously described peptide mixture P1-P6 designed to cover wide range of hydrophobicities, these peptides were chosen to cover wide range of S-values (Table 1). Second—a tryptic digest of the bovine proteins mixture (model mixture) is spiked with the “S-calibrating” peptides and run under two different gradient slopes in nano-flow RP-HPLC MS: 0.75 and 0.1875% acetonitrile per minute in our case. Third—retention times are assigned for all identified species. Fourth—retention time shifts in acetonitrile percentage (ACN %) units relative to P3 were determined as: Δ=(tR 0.75−tRP3 0.75)*0.75−(tR 0.1875−tRP3 0.1875)*0.1875 (3); where tR 0.75 and tRP3 0.75 are the retention times of any peptide and reference P3 at 0.75% per minute, and tR 0.1875 and tRP3 0.1875 are the retention times of any peptide and reference P3 at 0.1875% acetonitrile per minute gradient, respectively. Fifth—an experimental Δ vs. S curve was plotted for S-calibrating peptides (FIG. 3). Sixth—S values were extracted from this dependence for all peptides observed in both nano-RP-HPLC MS runs by extrapolation of experimental Δ on this plot.

First: LAGGGSASSSAHAAAFR [Peptide 11, synthetic S-calibrating peptide]
Second: LASAADFR [Peptide 6, synthetic S-calibrating peptide]
The “Slope (S in the basic LSS equation)” value of the first is higher: 44.66 for the first, 27.07 for the second.

Compared with LLGGGGDFR [Peptide 2], “LASAAHFR [Peptide 7, synthetic S-calibrating peptide]” is higher in “Slope (S in the basic LSS equation)” value: 24.76 for the first, 35.59 for the second.

First: LAGGGSASSSADAAAFR [Peptide 9, synthetic S-calibrating peptide]
Second: LLGGSLSSLHAAFR [Peptide 10, synthetic S-calibrating peptide]
The “Slope (S in the basic LSS equation)” value of the first is higher: 34.8 for the first, 33.81 for the second.

First: LGGGGGGDFR [Peptide 1, synthetic S-calibrating peptide]
Second: LLLGGDFR [Peptide 3, synthetic S-calibrating peptide]
The “Slope (S in the basic LSS equation)” value of the first is higher: 28.2 for the first, 21.46 for the second.

Going from “LLLLLDFR [Peptide 5, synthetic S-calibrating peptide]” to “LLSLADFG [Peptide 8, synthetic S-calibrating peptide]”, the “Slope (S in the basic LSS equation)” value falls from 22.76 to 19.2.

For “LLLLDFR [Peptide 4, synthetic S-calibrating peptide]”, the “Slope (S in the basic LSS equation)” value was 21.78.

Same assay, conditions: Luna C18(2) column, water/acetonitrile with 0.1% formic acid, 22-23° C., listed as P3

For LLGGGGDFR [Peptide 2], the “Slope (S in the basic LSS equation)” value was 24.76.

Assay: Determination of S from retention time shift Δ relative to P3 at two gradient slopes, nano-RP-HPLC MS of spiked tryptic digest
Assay type: physicochemical
Conditions: experimental S value, LC-MS runs of model peptide mixture
Procedure: Proteins and protein digestion. Tryptic digests of two different protein mixtures were utilized. The “test peptide mixture” contained human proteins: albumin, transferrin, fibrinogen. The “model peptide mixture” contained bovine proteins: albumin, transferrin, fibrinogen, catalase. Equimolar mixtures of the proteins were prepared, reduced with DTT, alkylated with iodoacetamide and digested with sequencing-grade modified trypsin (Promega, Madison, Wis.). Prior to nano-LC MS/MS analysis, mixtures were diluted with buffer A (0.1% formic acid in water) and spiked with the 6 standard peptides P1-P6^24 for test mixture and the set of 11 model peptides (described elsewhere^23) for a model mixture. All dilutions were performed to provide an injection of ˜100 fmole of each component into the nanoRP-HPLC MS system.
as §1
Mass spectrometry. A QStar Elite mass spectrometer (Applied Biosystems, Foster City, Calif.) equipped with a MicrolonSpray II source was used in standard MS/MS information dependent acquisition (IDA) mode for LC-ESI analyses. Protein identification was performed using Protein Pilot 3.0 (Applied Biosystems, Foster City, Calif.) with a restricted database containing target protein sequences and the sequences of standard peptides. Retention times of identified species (peak maxima) were assigned manually.
These two ways of measurement have been combined to provide a highly accurate and fast way of determining S for an extensive sets of peptides (see FIG. 3). First, precise isocratic measurement of S is performed in normal flow conditions with UV detection for a set of synthetic “S-calibrating” peptides. […]

Going from QAYPNLCQLCK to ILNKQQDDFGK, the “Slope (experimental)” value rises from 32.399 to 40.011.

First: LKPDPNTLCDEFK
Second: RTPIAVR
The “Slope (experimental)” value of the first is lower: 36.757 for the first, 39.365 for the second.

First: YLYEIAR
Second: FPTIPLSR
The “Slope (experimental)” value of the first is higher: 27.362 for the first, 27.325 for the second.

Going from IIPLNR to DIQYLPILK, the “Slope (experimental)” value falls from 28.596 to 25.291.

First: FSTVAGESGSADTVRDPR
Second: LASAADFR
The “Slope (experimental)” value of the first is higher: 44.208 for the first, 29.663 for the second.

First: TPCTVTCNIPVVSGK
Second: LLLGGDFR
The “Slope (experimental)” value of the first is higher: 34.721 for the first, 22.643 for the second.

Compared with LAVAAHFR, QVLLHQQALFGK is lower in “Slope (experimental)” value: 34.392 for the first, 33.087 for the second.

Compared with IQLEDWNGR, LDGSLDFK is lower in “Slope (experimental)” value: 27.849 for the first, 25.689 for the second.

Compared with QTALVELLK, IQALLDKYNEEKPKN is higher in “Slope (experimental)” value: 24.2 for the first, 40.038 for the second.

Compared with ESGLYFIRPLK, VFEHIGKR is higher in “Slope (experimental)” value: 30.232 for the first, 41.112 for the second.

Same assay, conditions: experimental S, LC-MS runs of model peptide mixture, formic acid

Going from “DSALGFLR [tryptic peptide detected in the model peptide mixture]” to ESKPPDSSKDECMVK, the “Slope (experimental)” value rises from 21.784 to 48.845.

First: EEGSVSSGTKQEFHTGK
Second: DSADGFLKIPSK
The “Slope (experimental)” value of the first is higher: 48.449 for the first, 30.089 for the second.

Going from TSHMDCIK to GNLDDFFHR, the “Slope (experimental)” value falls from 40.393 to 26.957.

First: DNCCILDER
Second: DGPLTGTYR
The “Slope (experimental)” value of the first is lower: 28.077 for the first, 28.947 for the second.

Compared with SFQLFGSPPGQR, DALLFPSFIHSQK is higher in “Slope (experimental)” value: 24.764 for the first, 29.523 for the second.

First: VLNEEQR
Second: APVDAFK
The “Slope (experimental)” value of the first is higher: 40.229 for the first, 26.378 for the second.

Same assay, conditions: model peptide mixture (tryptic digest of bovine proteins), 0.75 and 0.1875% acetonitrile per minute gradients, formic acid, S from Δ vs. S curve of S-calibrating peptides

In the case of “DSALGFLR [tryptic peptide detected in the model peptide mixture]”, the “experimental S-value” is reported as 21.8.
